Legend:
Assay type in all cases: biochemical, Arabidopsis thaliana
[1] = substrate: N[C@@H](Cc1ccccc1)C(=O)O; test: forward assay, phenylpyruvate at A320, nonlinear regression; details: acceptor 2-ketoglutarate at saturation, 100 mM HEPES-NaOH pH 8.2, 30°C
From the text: forward assay, phenylpyruvate at A320, nonlinear regression on At5g36160 (L-tyrosine aminotransferase, TAT)

[2] = substrate: N[C@@H](CCC(=O)O)C(=O)O; test: reverse assay, coupled to 2-ketoglutarate dehydrogenase, NADH at A340, nonlinear regression; details: amino acceptor at saturation (acceptor for this constant only in supplement), 100 mM HEPES-NaOH pH 8.2, 30°C
From the text: (§1) reverse assay, coupled to 2-ketoglutarate dehydrogenase, NADH at A340, nonlinear regression on At5g36160 (L-tyrosine aminotransferase, TAT)

[3] = substrate: O=C(O)C(=O)Cc1ccccc1; test: as above; details: amino donor glutamate at saturation, 100 mM HEPES-NaOH pH 8.2, 30°C
From the text: as §1

[4] = substrate: O=C(O)C(=O)Cc1ccc(O)cc1; test: as above; details: amino donor glutamate at saturation, 100 mM HEPES-NaOH pH 8.2, 30°C
From the text: as §1

[5] = substrate: O=C(O)CCC(=O)C(=O)O; test: forward assay, product absorbance, nonlinear regression; details: amino donor at saturation (donor for this constant only in supplement), 100 mM HEPES-NaOH pH 8.2, 30°C
From the text: forward assay, product absorbance, nonlinear regression on At5g36160 (L-tyrosine aminotransferase, TAT)

[6] = substrate: N[C@@H](Cc1ccc(O)cc1)C(=O)O; test: forward assay, 4-hydroxyphenylpyruvate at A331, nonlinear regression; details: acceptor 2-ketoglutarate at saturation, 100 mM HEPES-NaOH pH 8.2, 30°C
From the text: forward assay, 4-hydroxyphenylpyruvate at A331, nonlinear regression on At5g36160 (L-tyrosine aminotransferase, TAT)

B1: At5g36160 (L-tyrosine aminotransferase, TAT) (Arabidopsis thaliana) (protein)
chain: MGENGAKRWNFGANEVVERSNSLTIRDYLNTLINCLDGGDVRPVIPLGHGDPSPFPSFRTDQAAVEAICDAVRSTKFNNYSSSSGVPVARKAVAEYLSSDLSYQISPNDVHITAGCVQAIEILISALAIPGANILLPRPTYPMYDSRAAFCQLEVRYFDLLPENGWDVDLDGVEALADDKTVAILVINPCNPCGNVFSRQHLQKIAETACKLGILVIADEVYDHFAFGDKPFVSMAEFAELVPVIVLGAISKRWFVPGWRLGWMVTLDPHGIMKDSGFVQTLINVVNMSTDPATFIQGAMPDIIGNTKEEFFSSKLEMVKKCAEICYEELMKIPCITCPCKPEGSMFTMVKLNFSLLEDISDDLDFCSKLAKEESMIILPGQAVGLKNWLRITFAVELELLIEGFSRLKNFTERHSKNQP
notes: full-length cDNA in pET30a, N-terminal His6 and S-tag kept, E. coli BL21-CodonPlus-RIPL, Talon purified, about 52 kDa on SDS-PAGE; EC 2.6.1.5
B1 gave a Km [1] of 840 ± 200 µM, a kcat [1] of 0.08 s⁻¹ and a Km [2] of 1400 ± 160 µM. For the same protein, the kcat [2] was 6.1 s⁻¹, the Km [3] was 130 ± 60 µM and the kcat [3] was 6.1 s⁻¹. It also gave a Km [4] of 220 ± 50 µM, a kcat [4] of 6.1 s⁻¹ and a Km [5] of 1200 ± 270 µM. The kcat [5] was 0.08 s⁻¹, the Km [6] was 190 ± 160 µM and the kcat [6] was 0.08 s⁻¹.
